The values that follow come from patent US8734776B2 (ZymoGenetics, Inc., priority 2003, dated 2014).

One series has as its system adenoviral vector, AdGFP. The series can be described thus: Adenoviral (AdGFP) liver pathology in mice. The series is classed as in vivo, mouse. The note with it: C57Bl/6 mice. The procedure:
When injected intravenously, these viruses primarily target the liver for gene expression. The adenoviruses are replication deficient, but cause liver damage due to inflammatory cell infiltrate that can be monitored by measurement of serum levels of liver enzymes like AST and ALT, or by direct examination of liver pathology.
C57B116 mice were given once daily intraperitoneal injections of 50 μg mouse IL-28 (zcyto24 as shown in SEQ ID NO:8) or metIL-29C172S—PEG for 3 days. Control animals were injected with PBS. One hour following the 3rd dose, mice were given a single bolus intravenous tail vein injection of the adenoviral vector, AdGFP (1×10^9 plaque-forming units (pfu)). Following this, every other day mice were given an additional dose of PBS, mouse IL-28 or metIL-29C172S—PEG for 4 more doses (total of 7 doses). One hour following the final dose of PBS, mouse IL-28 or metIL-29C172S—PEG mice were terminally bleed and sacrificed. The serum and liver tissue were analyzed. Serum was analyzed for AST and ALT liver enzymes. Liver was isolated and analyzed for GFP expression and histology. For histology, liver specimens were fixed in formalin and then embedded in paraffin followed by H&E staining. Sections of liver that had been blinded to treat were examined with a light microscope. Changes were noted and scored on a scale designed to measure liver pathology and inflammation.

The test system of series [1] is encephelomyocarditis virus. Kind of series: Antiviral assay: cytopathic effect in HeLa cells. The series is classed as cell-based, human.
Series [2] deals with ISRE signaling in HepG2 cells. The note with it: 100 ng/ml; 4-hour.
In series [3] the test system is encephelomyocarditis virus. The series can be described thus: Antiviral assay: cytopathic effect in L929 cells. The series is classed as cell-based, mouse.
The next series concerns AML-12 cells. The series can be described thus: ISG induction in mouse liver cell line AML-12 (real-time PCR). The format is cell-based. The note with it: 20 ng/ml, 48 hour time point.
The test system of another series is Mouse B cells. The series can be described thus: Mouse B cell 3H-thymidine incorporation. The format is cell-based. The procedure:
Mouse B cells were isolated from 2 Balb/C spleens (7 months old) by depleting CD43+ cells using MACS magnetic beads. Purified B cells were cultured in vitro with LPS, anti-IgM or anti-CD40 monoclonal antibodies. Mouse IL-28 or mouse IFNα was added to the cultures and ^3H-thymidine was added at 48 hrs. and ^3H-thymidine incorporation was measured after 72 hrs. culture.

B1: zcyto24: mouse IL-28, SEQ ID NO:8 (protein, listed as Mus musculus)
chain: MKPETAGGHMLLLLLPLLLAAVLTRTQADPVPRATRLPVEAKDCHIAQFKSLSPKELQAFKKAKDAIEKRLLEKDLRCSSHLFPRAWDLKQLQVQERPKALQAEVALTLKVWENMTDSALATILGQPLHTLSHIHSQLQTCTQLQATAEPRSPSRRLSRWLHRLQEAQSKETPGCLEASVTSNLFRLLTRDLKCVANGDQCV
modifications: SIGNAL (1)...(28)
On to B1, for which the “liver histology: liver and inflammation scores versus PBS-treated group” value in the series on adenoviral vector, AdGFP was “lower liver and inflammation scores”. The “average serum AST” value with adenoviral vector, AdGFP (50 μg i.p., 7 doses, n=8) was found to be 193 U/L. The molecule further registered a relative liver fluorescence with adenoviral vector, AdGFP (50 μg i.p., 7 doses, n=8) of 34.5 arbitrary units. In addition, the “serum ALT” value in the series with adenoviral vector, AdGFP (50 μg i.p., 7 doses, n=8) was determined as 216 U/L. For the same molecule, the “Percentage Cytopathic Effect” value in series [1] (relative CM concentration .008X), in series [1] (relative CM concentration .0156X), in series [1] (relative CM concentration .0325X), in series [1] (relative CM concentration .0625X), in series [1] (relative CM concentration .125X) and in series [1] (relative CM concentration .25X) was 0% each time. Besides, the “Percentage Cytopathic Effect” value in series [1] (relative CM concentration .5X) came out at 0%; in series [3] (relative CM conc. .008X) it was 87%; in series [3] (relative CM conc. .0156X) it was 87%; in series [3] (relative CM conc. .0325X), 87%; in series [3] (relative CM conc. .0625X) it was 87%; in series [3] (relative CM conc. .125X) it was 87%. The “Percentage Cytopathic Effect” value in series [3] (relative CM conc. .25X) and in series [3] (relative CM conc. .5X) was 87% each time. Moreover, the “Fold Induction of Cytokine-dependent ISRE Signaling in HepG2 Cells” value in series [2] came to 4.7 fold. The “Mx1 expression relative to HPRT” value in the series with AML-12 cells came to 0.08. For the same molecule, the “OAS expression relative to HPRT” value with AML-12 cells is 0.04. In the series on AML-12 cells, the “PkR expression relative to HPRT” value is reported as 0.02. Moreover, the “3H-thymidine incorporation by mouse B cells” value in the series on Mouse B cells (stimulated with LPS or anti-IgM, IFNα 10 ng/ml, mouse IL-28 any concentration including 1000 ng/ml) is on record as “did not inhibit”. Moreover, the “3H thymidine incorporation by mouse B cells” value in the series on Mouse B cells (stimulated with anti-CD40 MAb) is listed as “increased”.
